According to the supplement of paper PMC9112550, “Optimization of the antimicrobial peptide Bac7 by deep mutational scanning” (BMC Biology, 2022):

These sequences were tested on Escherichia coli TOP10 (assay: shrunken log2 fold change of peptide-encoding DNA abundance (4.5 h post-induction vs induction); higher = less antimicrobial activity (less host growth inhibition)). Conditions: time post-induction: 4.5 h; library: site-saturation at positions 5, 18, 19, 20.
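Also: peptides expressed intracellularly from a pBAD plasmid library in pooled LB shake-flask culture, induced with 0.3% L-arabinose, DNA abundance read by NGS, three biological replicates, DESeq2 with apeglm shrinkage.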

Row | Sequence | shrunken log2 fold change
1 | RRIRCRPPRLPRPRPRPGETPRP | 0.238
2 | RRIRFRPPRLPRPRPRPPKEPRP | 0.0652
3 | RRIRTRPPRLPRPRPRPFCMPRP | -0.24
4 | RRIRDRPPRLPRPRPRPWTHPRP | -0.291
5 | RRIRCRPPRLPRPRPRPTMAPRP | -0.0611
6 | RRIRDRPPRLPRPRPRPPVSPRP | 0.0155
7 | RRIRYRPPRLPRPRPRPLYIPRP | -0.999
8 | RRIRYRPPRLPRPRPRPHWAPRP | -0.24
9 | RRIRWRPPRLPRPRPRPWMLPRP | -0.0694
10 | RRIRTRPPRLPRPRPRPFDRPRP | 0.0237
11 | RRIRCRPPRLPRPRPRPESNPRP | 0.00481
12 | RRIRERPPRLPRPRPRPESEPRP | 0.0931
13 | RRIRFRPPRLPRPRPRPQGVPRP | 0.103
14 | RRIRQRPPRLPRPRPRPWACPRP | -0.0783
15 | RRIRNRPPRLPRPRPRPILEPRP | 0.109
16 | RRIRFRPPRLPRPRPRPRNGPRP | 0.101
17 | RRIRPRPPRLPRPRPRPMSLPRP | -0.769
18 | RRIRDRPPRLPRPRPRPKNVPRP | -0.0304
19 | RRIRARPPRLPRPRPRPFYQPRP | -0.00727
20 | RRIRRRPPRLPRPRPRPCLNPRP | -0.4
21 | RRIRLRPPRLPRPRPRPSTSPRP | -0.0196
22 | RRIRIRPPRLPRPRPRPWWAPRP | -0.255
23 | RRIRMRPPRLPRPRPRPTGYPRP | 0.0453
24 | RRIRVRPPRLPRPRPRPITPPRP | 0.12
25 | RRIRCRPPRLPRPRPRPTGHPRP | -0.113

Row | Sequence | shrunken log2 fold change
26 | RRIRGRPPRLPRPRPRPMDIPRP | 0.0445
27 | RRIRERPPRLPRPRPRPCFLPRP | -0.647
28 | RRIRDRPPRLPRPRPRPAVTPRP | -0.0403
29 | RRIRQRPPRLPRPRPRPETCPRP | 0.0408
30 | RRIRARPPRLPRPRPRPFADPRP | 0.438
31 | RRIRFRPPRLPRPRPRPNGAPRP | -0.105
32 | RRIRMRPPRLPRPRPRPHQQPRP | 0.107
33 | RRIRQRPPRLPRPRPRPSMSPRP | -0.393
34 | RRIRARPPRLPRPRPRPSWFPRP | 0.156
35 | RRIRNRPPRLPRPRPRPIVPPRP | -0.382
36 | RRIRIRPPRLPRPRPRPINQPRP | -0.345
37 | RRIRTRPPRLPRPRPRPMIAPRP | 0.000989
38 | RRIRHRPPRLPRPRPRPEEWPRP | 0.0893
39 | RRIRKRPPRLPRPRPRPGHYPRP | 0.0236
40 | RRIRVRPPRLPRPRPRPNGQPRP | 0.0697
41 | RRIRTRPPRLPRPRPRPFYLPRP | -0.522
42 | RRIRVRPPRLPRPRPRPKDIPRP | -0.642
43 | RRIRMRPPRLPRPRPRPGDDPRP | 1.96
44 | RRIRARPPRLPRPRPRPCITPRP | 0.178
45 | RRIRNRPPRLPRPRPRPAYKPRP | -0.128
46 | RRIRWRPPRLPRPRPRPHTIPRP | -0.533
47 | RRIRWRPPRLPRPRPRPITAPRP | 0.0334
48 | RRIRQRPPRLPRPRPRPWCLPRP | -0.275
49 | RRIRVRPPRLPRPRPRPAYLPRP | 0.0246
50 | RRIRQRPPRLPRPRPRPATVPRP | 0.239

Row | Sequence | shrunken log2 fold change
51 | RRIRQRPPRLPRPRPRPPCRPRP | -0.0419
52 | RRIRGRPPRLPRPRPRPPLMPRP | 0.717
53 | RRIRERPPRLPRPRPRPFLLPRP | -0.688
54 | RRIRDRPPRLPRPRPRPYLHPRP | -0.119
55 | RRIRERPPRLPRPRPRPQVPPRP | -0.103
56 | RRIRMRPPRLPRPRPRPNRMPRP | -0.189
57 | RRIRKRPPRLPRPRPRPWTYPRP | 0.0938
58 | RRIRDRPPRLPRPRPRPQEEPRP | -0.0321
59 | RRIRRRPPRLPRPRPRPDPFPRP | 0.1
60 | RRIRKRPPRLPRPRPRPGYHPRP | 0.0924
61 | RRIRCRPPRLPRPRPRPHGEPRP | 0.0148
62 | RRIRMRPPRLPRPRPRPVSEPRP | -0.38
63 | RRIRHRPPRLPRPRPRPSMHPRP | -0.705
64 | RRIRIRPPRLPRPRPRPMNTPRP | -0.207
65 | RRIRIRPPRLPRPRPRPFAPPRP | 1.3
66 | RRIRHRPPRLPRPRPRPWMSPRP | -0.0135
67 | RRIRGRPPRLPRPRPRPFVYPRP | 0.077
68 | RRIRRRPPRLPRPRPRPGEEPRP | 0.139
69 | RRIRCRPPRLPRPRPRPAMRPRP | 0.509
70 | RRIRERPPRLPRPRPRPVTTPRP | -0.0245
71 | RRIRFRPPRLPRPRPRPVITPRP | -0.666
72 | RRIRTRPPRLPRPRPRPFRCPRP | 0.0246
73 | RRIRQRPPRLPRPRPRPRTNPRP | 0.158
74 | RRIRYRPPRLPRPRPRPLDYPRP | -1.11
75 | RRIRTRPPRLPRPRPRPTDEPRP | 0.491
